Measured values published in the supplement of paper PMC10567573.

B1: PLAGL1 (parent)
chain: TKEKKHQCDHCERCFYTRKDVRRH

Variants of: B1
Test: protein stability index of a GFP-peptide fusion (GPS, HEK-293T) (PSI 1-6); higher = more stable
Details: c terminus: a fixed tail appended
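Note: lentivirally expressed fusions sorted by FACS into six bins by GFP to DsRed ratio, PSI derived from sequencing read proportions per bin multiplied by bin number.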

Protein stability index, by site and new letter:
K2: R 3.77; A 3.58; S 3.39; G 3.15; Q 3.67; T 3.67; C 3.25; H 3.55; F 3.02; I 3.08; V 3.3; N 3.21; D 4.04; Y 3.21; W 3.16; P 3.1; M 3.71; E 3.65; L 2.75
K5: T 3.22; W 3.06; G 3.04; I 3.13; D 3.53; R 3.75; E 3.67; H 3.82; S 3.46; F 3.22; Q 3.67; C 2.59; M 3.81; P 3.67; V 3.63; N 3.03; Y 3.19; A 3.78; L 3.67
R13: K 3.54; I 2.62; D 3.79; E 3.66; H 3.87; L 3.27; C 3.39; P 2.75; G 3.25; M 3.26; A 3.77; Q 4.24; T 3.06; W 2.61; S 3.35; Y 2.63; N 3.81; F 3; V 3.41
E3: P 3.63; I 3.01; C 4.51; W 2.73; V 3.28; T 3.32; D 3.49; M 3.53; G 3.45; Q 3.35; L 3.14; R 3.59; F 3.29; Y 3.12; N 3.59; H 3.55; K 3.5; A 3.31; S 3.48
R18: D 3.82; E 3.61; A 3.54; C 3.06; K 3.09; L 3.76; H 3.29; M 2.95; G 2.87; F 2.76; I 3.06
Q7: V 3.23; T 2.74; F 2.91; Y 2.81; M 2.71; L 2.54; P 2.82; G 2.89; H 3.73; S 3.25; N 3.21; W 2.77; I 3.32; R 3.33; D 3.43; E 3.31; K 3.8; C 3.36; A 3.41
H10: Q 3.47; G 4.13; V 3.37; L 2.55; K 3.91; R 3.41; I 2.71; S 3.68; N 3.6; D 3.79; A 3.33; C 3.33; M 3.33; T 3.37; Y 2.46; E 3.37; W 2.67; P 3.4; F 2.36
C8: R 3.42; N 3.29; F 2.6; H 3.25; P 3.17; M 2.98; Y 2.78; E 3.84; I 3.1; W 2.75; L 3.56; V 3.12; A 3.53; K 3.43; G 3.02; D 3.61; Q 3.53; S 3.48; T 3.24
C11: Y 3.22; V 3.73; R 4.11; H 3.31; I 3.65; P 3.98; S 3.42; Q 3.91; T 3.24; N 3.39; W 3.46; L 3.71; G 3.61; D 3.96; M 3.57; K 3.86; E 4.31; F 3.27; A 3.62
E12: K 3.09; R 3.15; S 3.03; F 3.12; V 3.24; T 3.15; I 2.89; N 3.19; Y 3.3; L 3; Q 3.15; D 3.6; C 3.27; G 4.02; M 3.15; W 2.69; H 3.34; P 4.17; A 3.05
T17: G 3.05; N 3.7; Y 3.09; L 3.77; P 3.1; R 3.63; A 3.6; E 3.81; C 4.01; W 2.74; S 3.12; I 3.01; K 3.4; Q 3.44; F 4.01; M 3.26; H 3.29; D 3.61; V 3.22
H6: V 2.67; I 2.94; T 2.86; Q 3.08; A 2.39; R 2.95; G 2.88; P 2.94; Y 3.43; D 2.91; S 2.88; W 2.51; F 3.01; K 3.19; L 2.5; N 3.33; E 3.55; C 3.7; M 2.7
K4: G 3.49; P 3.33; S 2.93; N 3.08; V 3.24; H 3.42; T 3.27; A 3.32; Q 3.4; E 4.01; D 3.84; C 3.87; M 3.27; Y 3.03; R 3.29; L 2.9; I 3.57; W 2.95; F 3.21
T1: I 3.57; Y 3.31; P 3.48; F 3.1; A 3.1; S 3.46; H 3.12; R 3.37; M 3.39; D 3.04; E 3.82; K 3.59; G 3.68; L 3.34; Q 3.52; C 3.75; V 3.5; N 3.38; W 3.54
F15: C 2.83; M 4.05; S 3.05; K 3.94; W 3.41; P 3.06; R 3.77; Q 3.79; A 3.79; Y 3.48; I 3.62; D 2.98; N 3.48; H 3.46; G 2.83; L 3.9; T 4.24; E 3.61; V 3.47
C14: F 3.18; W 3.65; K 3.78; D 3.54; T 3.6; H 3.12; A 3.11; M 3.52; G 4.02; P 3.29; R 3.16; Y 3.27; Q 3.41; L 3.06; V 3.42; E 3.69; I 2.65; S 3.28; N 3.25
D9: A 2.67; N 4.02; C 3.14; S 3.14; Y 2.46; I 2.53; P 3.11; E 3.32; W 2.84; M 3.5; K 3.24; R 2.92; F 2.31; L 2.98; G 3.66; H 3.02; V 2.47; Q 3; T 2.92
Y16: F 3.58; S 3.63; K 3.14; D 4.12; E 4.19; A 4.02; C 3.74; M 3.75; I 3.18; R 4; H 3.46; G 3.79; Q 3.88; V 3.75; N 4.2; P 3.13; T 3.58; L 3.4; W 3.26
